Laboratory results: the RNAGym collection of RNA variant scans (doi:10.1073/pnas.2313332121)

B1: TPR t1 (parent)
chain: GACCAAUCUGCCCUCAGAGCUCGAGAACAUCUUCGGAUGCAGAGGAGGCAGGCUUCGGUGGCGCGAUAGCGCCAACGUCCUCAACCUCCAAUGCAUCCCACCACAUGAUGAUGCCUGAAGAGCCUUGGUUUUUUG

Variants of: B1
Test: polymerase ribozyme fitness, log enrichment relative to wild type (log ratio); higher = more active; in vitro selection for triplet polymerase activity
Outline: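 Fitness is a logarithmic measure of how a genotype enriched relative to the wild type, with replicate averages weighted by inverse variance. The logarithm uses base 2, and enrichment came from Illumina sequencing of input and output libraries. Those libraries were PCR-built, transcribed mutants of each subunit of a heterodimeric triplet polymerase ribozyme, passed through one triplicate in vitro selection round that included frozen incubation at −7 °C, gel excision of extended constructs and streptavidin-bead capture. Genotypes were kept only if they had ≥10 input reads and ≥1 read per output.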

Which “polymerase ribozyme fitness (log ratio)” value does the source give for GACCAAUCUGCCCUCAGAGCUCGAGAACAUCUUCGGAUGCAGAGGAGGCAGGCUUCGGUGGCGCGAUAGCGCCAACGUCCUCAACCUCCAAUCCAUCCCACCACAUGAUGAUGCCUGAAGAGCCUUGGUGUUUUG [G93C U130G] here?
Its value is -1.51.

Which “polymerase ribozyme fitness (log ratio)” value does the source give for GACCAAUCUGCCCUCAGAGCUCGAGAACAUCUUCGGAUGCAGAGGAGGCAGGCUUCGGUGGCGCGAUAGCGCCAACGUCCUCAACCUCCAAUCCAUCCCACCACAUGAUGAUGCCUGAAAAGCCUUGGUCUUUUG [G93C G120A U130C] here?
Its value is 0.452.

With GACCAAUCUGCCCUCAGAGCUCGAGAACAUCUUCGGAUGCAGAGGAGGCAGGCUUCGGUGGCGCGAUAGCGCCAACGUCCUCAACCUCCAAUCCAUCCCACCACAUGAUGAUGCCUGAAGAACCUUGGUUUUUUG [G93C G122A] as the variant, how does the “polymerase ribozyme fitness (log ratio)” value read?
The value was -0.79.

For GACCAAUCUGCCCUCAGAGCUCGAGAACAUCUUCGGAUGCAGAGGAGGCAGGCUUCGGUGGCGCGAUAGCGCCAACGUCCUCAACCUCCAAUACAUCCCACCACAUGAUGAAGCCUGAAGAGCCUUGGUUUUUUG [G93A U112A], which “polymerase ribozyme fitness (log ratio)” value is on record?
The value was 0.918.

With GACCAAUCUGCCCUCAGAGCUCGAGAACAUCUUCGGAUGCAGAGGAGGCAGGCUUCGGUGGCGCGAUAGCGCCAACGUCCUCAACCUCCAAUACAUCCCACCAUAUGAUGAUGCCUGAAGAGCCUUGGUUUUUUG [G93A C104U] as the variant, how does the “polymerase ribozyme fitness (log ratio)” value read?
Its value is -0.0844.

Which “polymerase ribozyme fitness (log ratio)” value does the source give for GACCAAUCUGCCCUCAGAGCUCGAGAACAUCUUCGGAUGCAGAGGAGGCAGGCUUCGGUGGCGCGAUAGCGCCAACGUCCUCAACCUCCAAUGAAUCCCACCACAUGAUGAUGUCUGAAGAGCCUUGGUUUUUUG [C94A C114U] here?
Its value is -2.56.

With GACCAAUCUGCCCUCAGAGCUCGAGAACAUCUUCGGAUGCAGAGGAGGCAGGCUUCGGUGGCGCGAUAGCGCCAACGUCCUCAACCUCCAAUUCAACCCACCACAUGAUGAUGCCUGAAGAGCCUUGGUUUUUUG [G93U U96A] as the variant, how does the “polymerase ribozyme fitness (log ratio)” value read?
The value was -2.6.

Which “polymerase ribozyme fitness (log ratio)” value does the source give for GACCAAUCUGCCCUCAGAGCUCGAGAACAUCUUCGGAUGCAGAGGAGGCAGGCUUCGGUGGCGCGAUAGCGCCAACGUCCUCAACCUCCAACGCAUCCCAUCAUAUGAUGAUGCCUGAAGAGCCUUGGUUUUUUG [U92C C101U C104U] here?
Its value is -0.793.

For GACCAAUCUGCCCUCAGAGCUCGAGAACAUCUUCGGAUGCAGAGGAGGCAGGCUUCGGUGGCGCGAUAGCGCCAACGUCCUCAACCUCCAAUACAUCCUACCACAUGAUGAUGCCUGAAGAGCCUUGGUUUUUUG [G93A C99U], which “polymerase ribozyme fitness (log ratio)” value is on record?
Its value is -4.67.

With GACCAAUCUGCCCUCAGAGCUCGAGAACAUCUUCGGAUGCAGAGGAGGCAGGCUUCGGUGGCGCGAUAGCGCCAACGUCCUCAACCUCCAAGGCAUCCCACCACAUGAUGAUGCCUGAAGGGCCUUGGUUUUUUG [U92G A121G] as the variant, how does the “polymerase ribozyme fitness (log ratio)” value read?
Its value is -0.555.

Which “polymerase ribozyme fitness (log ratio)” value does the source give for GACCAAUCUGCCCUCAGAGCUCGAGAACAUCUUCGGAUGCAGAGGAGGCAGGCUUCGGUGGCGCGAUAGCGCCAACGUCCUCAACCUCCAAUUCAUCCCACCACAUGAUGGUGCCUGAAGAGCCUUGGUUUUUUG [G93U A111G] here?
Its value is -0.352.

With GACCAAUCUGCCCUCAGAGCUCGAGAACAUCUUCGGAUGCAGAGGAGGCAGGCUUCGGUGGCGCGAUAGCGCCAACGUCCUCAACCUCCAAUUCAUCCCACCACAUGAUGAUGCCUGAAGAGUCUUGGUUUUUUG [G93U C123U] as the variant, how does the “polymerase ribozyme fitness (log ratio)” value read?
The value was 0.528.

Which “polymerase ribozyme fitness (log ratio)” value does the source give for GACCAAUCUGCCCUCAGAGCUCGAGAACAUCUUCGGAUGCAGAGGAGGCAGGCUUCGGUGGCGCGAUAGCGCCAACGUCCUCAACCUCCAAAGCAUCCCACCACAUGAUGAUGCCUGAAGAGCCUUGGUGGUUUG [U92A U130G U131G] here?
Its value is -5.8.

With GACCAAUCUGCCCUCAGAGCUCGAGAACAUCUUCGGAUGCAGAGGAGGCAGGCUUCGGUGGCGCGAUAGCGCCAACGUCCUCAACCUCCAAUACAUCCCACCACAUGAUGAUACCUGAAGAGCCUUGGUUUUUUG [G93A G113A] as the variant, how does the “polymerase ribozyme fitness (log ratio)” value read?
The value was -0.607.

With GACCAAUCUGCCCUCAGAGCUCGAGAACAUCUUCGGAUGCAGAGGAGGCAGGCUUCGGUGGCGCGAUAGCGCCAACGUCCUCAACCUCCAAUUCAUCCCACCACAUGAUGAUGCCUGAACAGCCUUGGUUUUUUG [G93U G120C] as the variant, how does the “polymerase ribozyme fitness (log ratio)” value read?
The value was -0.763.

Which “polymerase ribozyme fitness (log ratio)” value does the source give for GACCAAUCUGCCCUCAGAGCUCGAGAACAUCUUCGGAUGCAGAGGAGGCAGGCUUCGGUGGCGCGAUAGCGCCAACGUCCUCAACCUCCAAUCCAUCCUACCACAUGAUGAUGCCUGAAGAGCCUUGGUUUUUUG [G93C C99U] here?
The value was -3.93.

For GACCAAUCUGCCCUCAGAGCUCGAGAACAUCUUCGGAUGCAGAGGAGGCAGGCUUCGGUGGCGCGAUAGCGCCAACGUCCUCAACCUCCAAUACAUCCCACCACAUGAUGAUGGCUGAAGAGCCUUGGUUUUUUG [G93A C114G], which “polymerase ribozyme fitness (log ratio)” value is on record?
Its value is -2.93.

For GACCAAUCUGCCCUCAGAGCUCGAGAACAUCUUCGGAUGCAGAGGAGGCAGGCUUCGGUGGCGCGAUAGCGCCAACGUCCUCAACCUCCAAUCCAUCCCACCACAUGAUGAUACCUGAAGAGCGUUGGUUUUUUG [G93C G113A C124G], which “polymerase ribozyme fitness (log ratio)” value is on record?
Its value is -0.942.

With GACCAAUCUGCCCUCAGAGCUCGAGAACAUCUUCGGAUGCAGAGGAGGCAGGCUUCGGUGGCGCGAUAGCGCCAACGUCCUCAACCUCCAAUUUAUCCCACCACAUGAUGAUGCCUGAAGAGCCUUGGUUUUUUG [G93U C94U] as the variant, how does the “polymerase ribozyme fitness (log ratio)” value read?
Its value is -1.22.

For GACCAAUCUGCCCUCAGAGCUCGAGAACAUCUUCGGAUGCAGAGGAGGCAGGCUUCGGUGGCGCGAUAGCGCCAACGUCCUCAACCUCCAAUACAUCCCACCACAUGAUGAUGCCUGAAGAGCCUUGGUUUAUUU [G93A U132A G135U], which “polymerase ribozyme fitness (log ratio)” value is on record?
The value was -0.722.

With GACCAAUCUGCCCUCAGAGCUCGAGAACAUCUUCGGAUGCAGAGGAGGCAGGCUUCGGUGGCGCGAUAGCGCCAACGUCCUCAACCUCCAAUUCAUCCCACCACAUGAUGAUGCCUGAAGAGCCUUGGUUUUUUC [G93U G135C] as the variant, how does the “polymerase ribozyme fitness (log ratio)” value read?
The value was -0.696.
